For one assay, the target named is VRC01 IgG1. Kind of assay: ITC.
In assay [1] the target is VRC01 IgG1 bound to its antigen (not stated | HIV-1, strain BaL). The experiment in a line: ITC.

As for “human FcγRIIIa-V158, soluble extracellular domain (receptor)”, the figures for the Kd (in the assay with VRC01 IgG1; in assay [1]) were 150 nM and 547 nM, respectively.
